Experimental data taken from IntAct's records for PubMed 34799561.

B1: DNA damage-inducible transcript 3 protein (Homo sapiens), P35638 (parent)
chain: MAAESLPFSFGTLSSWELEAWYEDLQEVLSSDENGGTYVSPPGNEEEESKIFTTLDPASLAWLTEEEPEPAEVTSTSQSPHSPDSSQSSLAQEEEEEDQGRTRKRKQSGHSPARAGKQRMKEKEQENERKVAQLAEENERLKQEIERLTREVEATRRALIDRMVNLHQA
B2: Ubiquitin-associated protein 2-like (Homo sapiens), Q14157 (parent)
chain: MMTSVGTNRARGNWEQPQNQNQTQHKQRPQATAEQIRLAQMISDHNDADFEEKVKQLIDITGKNQDECVIALHDCNGDVNRAINVLLEGNPDTHSWEMVGKKKGVSGQKDGGQTESNEEGKENRDRDRDYSRRRGGPPRRGRGASRGREFRGQENGLDGTKSGGPSGRGTERGRRGRGRGRGGSGRRGGRFSAQGMGTFNPADYAEPANTDDNYGNSSGNTWNNTGHFEPDDGTSAWRTATEEWGTEDWNEDLSETKIFTASNVSSVPLPAENVTITAGQRIDLAVLLGKTPSTMENDSSNLDPSQAPSLAQPLVFSNSKQTAISQPASGNTFSHHSMVSMLGKGFGDVGEAKGGSTTGSQFLEQFKTAQALAQLAAQHSQSGSTTTSSWDMGSTTQSPSLVQYDLKNPSDSAVHSPFTKRQAFTPSSTMMEVFLQEKSPAVATSTAAPPPPSSPLPSKSTSAPQMSPGSSDNQSSSPQPAQQKLKQQKKKASLTSKIPALAVEMPGSADISGLNLQFGALQFGSEPVLSDYESTPTTSASSSQAPSSLYTSTASESSSTISSNQSQESGYQSGPIQSTTYTSQNNAQGPLYEQRSTQTRRYPSSISSSPQKDLTQAKNGFSSVQATQLQTTQSVEGATGSAVKSDSPSTSSIPPLNETVSAASLLTTTNQHSSSLGGLSHSEEIPNTTTTQHSSTLSTQQNTLSSSTSSGRTSTSTLLHTSVESEANLHSSSSTFSTTSSTVSAPPPVVSVSSSLNSGSSLGLSLGSNSTVTASTRSSVATTSGKAPPNLPPGVPPLLPNPYIMAPGLLHAYPPQVYGYDDLQMLQTRFPLDYYSIPFPTPTTPLTGRDGSLASNPYSGDLTKFGRGDASSPAPATTLAQPQQNQTQTHHTTQQTFLNPALPPGYSYTSLPYYTGVPGLPSTFQYGPAVFPVAPTSSKQHGVNVSVNASATPFQQPSGYGSHGYNTGVSVTSSNTGVPDISGSVYSKTQQSFEKQGFHSGTPAASFNLPSALGSGGPINPATAAAYPPAPFMHILTPHQQPHSQILHHHLQQDGQTGSGQRSQTSSIPQKPQTNKSAYNSYSWGAN

Variants of: B1
Settings: with G3BP1, Q13283
Target sequence in this assay (Q13283 whole entry, looked up): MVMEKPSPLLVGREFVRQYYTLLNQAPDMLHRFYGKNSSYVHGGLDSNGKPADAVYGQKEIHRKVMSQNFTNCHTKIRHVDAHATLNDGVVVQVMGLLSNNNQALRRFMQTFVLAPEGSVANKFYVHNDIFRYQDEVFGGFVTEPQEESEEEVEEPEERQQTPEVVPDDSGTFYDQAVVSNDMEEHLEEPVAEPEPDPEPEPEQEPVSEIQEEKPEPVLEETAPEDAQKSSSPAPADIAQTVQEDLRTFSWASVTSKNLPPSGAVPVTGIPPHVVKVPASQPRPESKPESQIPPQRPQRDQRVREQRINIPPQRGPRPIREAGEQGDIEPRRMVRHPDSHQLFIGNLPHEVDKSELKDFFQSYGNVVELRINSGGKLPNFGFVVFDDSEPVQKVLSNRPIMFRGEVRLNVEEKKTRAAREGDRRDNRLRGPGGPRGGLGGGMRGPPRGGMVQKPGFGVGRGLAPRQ
With MAAESLPFSAATLSSWELEAWYEDLQEVLSSDENGGTYVSPPGNEEEESKIFTTLDPASLAWLTEEEPEPAEVTSTSQSPHSPDSSQSSLAQEEEEEDQGRTRKRKQSGHSPARAGKQRMKEKEQENERKVAQLAEENERLKQEIERLTREVEATRRALIDRMVNLHQA [F10A;G11A] the “effect of a mutation on the interaction” value was “disrupting interaction strength”.

Variants of: B2
Settings: with G3BP1, Q13283
Target sequence in this assay (Q13283 whole entry, looked up): as the sequence (Q13283 whole entry, looked up) above
For F518A;F523A, the “effect of a mutation on the interaction” value was “disrupting interaction strength”.

Variants of: B2
Settings: with G3BP1, Q13283
Remark: another data set of the same source
Target sequence in this assay (Q13283 whole entry, looked up): as the sequence (Q13283 whole entry, looked up) above
With F518A;F523A the “effect of a mutation on the interaction” value was “decreasing interaction strength”.
